Drawing on the supplement of paper PMC10567573, this text covers protein stability index for 72 sequences.

± gives the standard deviation.

The series in a line: protein stability index of a GFP-peptide fusion (GPS, HEK-293T) (PSI 1-6); higher = more stable.
Where [1] appears, read: treatment: DMSO, c terminus: a fixed tail appended.
Setting [2] is: treatment: MLN4924 1 uM, 8 h, c terminus: a fixed tail appended.
Where [3] appears, read: treatment: DMSO, c terminus: native.
The mark [4] stands for this setting: treatment: MLN4924 1 uM, 8 h, c terminus: native.
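Note: 24-mer peptide tiles fused after GFP, lentivirally expressed, FACS-sorted into six equal bins by GFP/DsRed ratio, decoded by Illumina sequencing, PSI is the read-weighted mean bin number.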

On to MLLSVSQSMSEEEREKVTPLMVKG [SEPHS2], for which the protein stability index is, setting by setting: under setting [1], 3.83 ± 0.36; under setting [2], 3.86 ± 0.43.
On the same counts, the results for MLREPAEPVAAEPKQSGSFRYLQG [PDLIM4] are 4.18 ± 0.12 and 4.25 ± 0.17.
The corresponding values for MNARGLGSELKDSIPVTELSASGP [POMP] are 4.78 ± 0.34 and 4.62 ± 0.23.
The corresponding values for MNNAQRIEKWVILEKDFSIYGGEL [ACSBG2] are 2.2 ± 0.12 and 2.28 ± 0.57.
As to MPLSGTPAPNKKRKSSKLIMELTG [MYOZ1], the protein stability index runs as follows: under setting [1], 3.63 ± 0.24; under setting [2], 3.81 ± 0.22.
The corresponding values for MQVHKETIDAVPNAIPGRTDIELE [ZNF207] are 4.97 ± 0.15 and 5.17 ± 0.18.
Take MRAPMLQKQQAPRMDTPPPEERLE [CCDC89]: the protein stability index came out at 5.21 ± 0.24 under setting [1] and 5.29 ± 0.29 under setting [2].
The corresponding values for MRILAHGELVLATAISSFTRHVFT [TLE6] are 3.1 ± 0.61 and 2.76 ± 0.35.
The corresponding values for MSEGKPPDKKKRPRRSLSISKNKK [FAN1] are 5.08 ± 0.17 and 5.07 ± 0.21.
For MSEWSECTAKCGERSVVTRDIRCS [ADAMTSL2], the protein stability index is 3.87 ± 0.45 under setting [1] and 3.74 ± 0.051 under setting [2].
As for MSNKDRHIDSSCSSFIKTEPSSPA [ESRRG], the protein stability index is, setting by setting: under setting [1], 4.33 ± 0.18; under setting [2], 4.33 ± 0.17.
In the case of MTPDIHELVENIKSVLKSDEEHME [FAM189A2], the protein stability index came to 4.72 ± 0.24 under setting [1] and 4.39 ± 0.66 under setting [2].
As to MVDSFHRTSLQYGIMCLKRLNYDR [PPFIA4], the protein stability index reads like this: under setting [1], 1.88 ± 0.15; under setting [2], 2.27 ± 0.2.
On the same counts, the results for MYILSPAVLRRIQLQPTSIEKEVF [GMPPB] are 2.29 ± 0.42 and 2.24 ± 0.41.
Regarding NDRDFLTRIFTEDRFAQDSEMKKC [PPEF2], the protein stability index stood at 4.61 ± 0.16 under setting [1] and 4.79 ± 0.21 under setting [2].
As for NDRGDHYHWKDLNRGINITIYGKT [EFHC1], the protein stability index reads like this: under setting [1], 2.5 ± 0.17; under setting [2], 2.39 ± 0.54.
The corresponding values for NECEITKRRRKSCQACRFMKCLKV [ESRRG] are 2.57 ± 0.056 and 2.95 ± 0.38.
As for NFARLQTCISELRMLQREGCFRSQ [M1AP], the protein stability index came out at 2.15 ± 0.31 under setting [1] and 2.13 ± 0.2 under setting [2].
For NFFRMFDRNTKRDVTLEASRESSK [PPP2R2C], the protein stability index worked out at 3.74 ± 0.32 under setting [1] and 3.73 ± 0.26 under setting [2].
The corresponding values for NFSAAKSLLKKPDGVKESTESSNT [CAMK2D] are 5.35 ± 0.22 and 5.28 ± 0.35.
With NGKTIEMDTQFTIRARELQNIYKC [IQUB], the protein stability index amounted to 2.57 ± 1.1 under setting [1] and 2.8 ± 0.19 under setting [2].
The corresponding values for NGRKIMGKEVKVNWATTPSSQKKD [TIA1] are 4.43 ± 0.077 and 4.55 ± 0.22.
Take NGTRVQEEPELVFTLGDCDVIQAL [FKBP8]: the protein stability index is, setting by setting: under setting [1], 3.72 ± 0.28; under setting [2], 3.83 ± 0.17.
NGVSGPSQDLLPPPNPYPLPQEHS [TBX5]: the protein stability index under setting [1] is 4.64 ± 0.33 and the protein stability index under setting [2] came out at 4.54 ± 0.56.
The corresponding values for NHGFEVLYHSVKQGPISTKELADF [FCHO1] are 3.4 ± 0.15 and 3.29 ± 0.17.
On the same counts, the results for NHPDLAKDLTEYLKVRSHDPEEAI [PDS5B] are 4.7 ± 0.23 and 4.43 ± 0.59.
Consider NIHPQVLLPDQARGEVPWSPELGR [ZNF263], for which the protein stability index was found to be 4.12 ± 0.16 under setting [1] and 4.34 ± 0.21 under setting [2].
On the same counts, the results for NIQANNCFSTGLSRRVLLTNVVTG [DCAF4] are 2.54 ± 0.26 and 2.63 ± 0.2.
The corresponding values for NKLQYHAGLASGLLNQQSLKRSAN [MED27] are 3.47 ± 0.25 and 3.51 ± 0.29.
The corresponding values for NLAAMTPHDFIEHFLSKMPEAEEN [CCND1] are 4.49 ± 0.075 and 4.49 ± 0.04.
For NLAKEQLSRENIQSSLLETLYRNR [PPEF2], the protein stability index was found to be 3.05 ± 0.28 under setting [1] and 3.22 ± 0.12 under setting [2].
For NLFVMQVEMDIYTALKKWMFLQLV [GMCL1], the protein stability index runs as follows: under setting [1], 2.74 ± 0.66; under setting [2], 2.17 ± 0.39.
The corresponding values for NLRAAGAEALGKLLQQNKSIQSLT [LRRC45] are 3.26 ± 0.19 and 3.33 ± 0.19.
The corresponding values for NLTRRFSDLGFEVKCFNDLKAEEL [CASP6] are 2.76 ± 0.46 and 3 ± 0.27.
On the same counts, the results for NLYEEGRTAFLWRGNVVLRAQMIR [TRIM43] are 2.22 ± 0.2 and 2.06 ± 0.21.
As to NNPEYLRERNMAPDLRQDFNMMEQ [ADD1], the protein stability index is 4.74 ± 0.27 under setting [1] and 4.87 ± 0.18 under setting [2].
Take NPFFAKTLQHWPHIIRIGDLKPTG [DENND6A]: the protein stability index reads like this: under setting [1], 2.21 ± 0.34; under setting [2], 2.07 ± 0.23.
On the same counts, the results for NSAIRFLRKYSFDGLDLDWEYPGS [CHIT1] are 2.38 ± 0.28 and 2.36 ± 0.32.
With NSTLDPHGHLILHSMHKYQPRIHL [TBX6], the protein stability index reads like this: under setting [1], 2.19 ± 0.17; under setting [2], 2.34 ± 0.26.
On the same counts, the results for NSYPRADTGLFSRSKSGSEEVLCD [TRIM29] are 4.62 ± 0.33 and 4.68 ± 0.32.
On the same counts, the results for NTFIALALQTLLTLIVVDASGLGL [SLC19A2] are 3.36 ± 0.57 and 3.3 ± 0.27.
On the same counts, the results for NTLEGKKPGNNEGSGAPSPLSKSS [SNAP91] are 5.41 ± 0.23 and 5.35 ± 0.28.
NTVERYNPQENRWHTIAPMGTRRK [KLHL20]: the protein stability index amounted to 4.43 ± 0.15 under setting [1] and 4.59 ± 0.17 under setting [2].
The corresponding values for NYSSSQDALISVSYTIITPLFNPM [OR10K2] are 3.07 ± 0.46 and 2.92 ± 0.33.
For the sequence PAATEAYGSGDTPGGPCDSTLGGD [TBX6], the protein stability index under setting [1] turned out to be 5.46 ± 0.25 and the protein stability index under setting [2] was found to be 5.3 ± 0.55.
The corresponding values for PAPKRGYSSEMKTEDELRVRHLEE [AUH] are 5.15 ± 0.48 and 4.75 ± 0.87.
On the same counts, the results for PAWNSKLQYILAQIGFSVGLGNIW [SLC6A17] are 2.83 ± 0.45 and 2.47 ± 0.12.
The corresponding values for PDDFVPPVPPPSYFATFYSCTPRM [FAM189A2] are 2.65 ± 0.15 and 2.7 ± 0.32.
For PDTQALCHHLPVIRQLATSGRFIV [SMG5], the protein stability index was 2.07 ± 0.45 under setting [1] and 2.23 ± 0.44 under setting [2].
In the case of PEPGRAGYPAPRDEGVLRPRAHA [HAGHL], the protein stability index reads like this: under setting [3], 3.29 ± 0.19; under setting [4], 3.41 ± 0.28.
For the sequence PERIYQGSSGSYFVKDPQGRIIAV [PI4K2A], the protein stability index is, setting by setting: under setting [1], 2.78 ± 0.25; under setting [2], 2.74 ± 0.46.
With PESVERLTGVSISQVNHKPLRTA [FLOT1], the protein stability index came to 2.66 ± 0.69 under setting [3] and 3.11 ± 0.18 under setting [4].
With PETMTCRLSNNQRYLFLDGDSHYE [ZFYVE21], the protein stability index was determined as 2.52 ± 0.45 under setting [1] and 2.8 ± 0.33 under setting [2].
As for PFAFVEFEDPRDAEDAVYGRDGYD [SRSF1], the protein stability index runs as follows: under setting [1], 4.76 ± 0.15; under setting [2], 4.64 ± 0.2.
Turning to PFVSAMPTPMPHNKGTRFSEAWEY [ZBED2], the protein stability index is 2.88 ± 0.23 under setting [1] and 2.94 ± 0.11 under setting [2].
Turning to PGIDRPGMLCSFRIPGAWSCAWSL [DCAF4], the protein stability index under setting [1] worked out at 3.32 ± 0.45 and the protein stability index under setting [2] was 2.96 ± 0.61.
The corresponding values for PGQVAGADFESEDEGEEFDDWEDD [EID1] are 5.52 ± 0.59 and 5.59 ± 0.2.
On the same counts, the results for PGRRGDPDTAPPSERPLEDLRLRL [RTN2] are 4.43 ± 0.2 and 4.63 ± 0.21.
PGSASLAQSRLEDPGADSEKSTVV [DLX1] returned a protein stability index under setting [1] of 5.49 ± 0.38 and a protein stability index under setting [2] of 5.36 ± 0.26.
The corresponding values for PHLPRVMLPGVLAGVSAEESWAGP [SCNN1D] are 3.37 ± 0.34 and 3.4 ± 0.24.
The corresponding values for PHYPEYFQQPAPEYHQPQAPANVA [LOXL2] are 4.26 ± 0.2 and 4.2 ± 0.28.
On the same counts, the results for PIDGTTNFVHRFPFVAVSIGFAVN [IMPA1] are 2.96 ± 0.76 and 2.39 ± 0.55.
Sequence PIGKISKNKKKKLKKKQKRQAELL [SRPK2] gave a protein stability index under setting [1] of 4.37 ± 0.17.
Regarding PKPAGGAIPTKKSLPSPSSSGHQN [FBF1], the protein stability index by setting is: under setting [1], 4.98 ± 0.14; under setting [2], 4.92 ± 0.17.
On to PLEGSAKGKVQAELSQPLTAGGAI [RBBP5], for which the protein stability index came out at 4.88 ± 0.19 under setting [1] and 4.72 ± 0.35 under setting [2].
PLEPEDALSDAEFEGEGDYEEGMY [P3H4] had a protein stability index under setting [1] of 5.59 ± 0.3 and a protein stability index under setting [2] of 5.44 ± 0.34.
On the same counts, the results for PLMVKGFRDAAEEGGTAVTGGQTV [SEPHS2] are 5.05 ± 0.3 and 5.16 ± 0.13.
On the same counts, the results for PLSVHRPPTSGCLGPVPREDQAEA [TSPAN10] are 5.23 ± 0.17 and 5.1 ± 0.075.
Turning to PNIQEAVEGAMHIQECVPEDLELK [CRYL1], the protein stability index reads like this: under setting [1], 5.49 ± 0.13; under setting [2], 5.57 ± 0.19.
With PNQAMVVAAAGDACPPQHVPPKDS [TBC1D10A], the protein stability index worked out at 5.5 ± 0.14 under setting [1] and 5.37 ± 0.12 under setting [2].
On the same counts, the results for PPATQNTFGNSTLALGPGESLPHR [PLAGL1] are 4.63 ± 0.34 and 4.39 ± 0.083.
Turning to PPPDAAATAASSSASSPASVGDPC [SLC25A25], the protein stability index was 5.39 ± 0.14 under setting [1] and 5.58 ± 0.13 under setting [2].
